Assay results: patent US9096871B2, “Variant CBH I polypeptides with reduced product inhibition” (BP Corporation North America Inc., priority 2010, dated 2015)

Assay: Bagasse assay in the absence and presence of β-glucosidase (BG)
Format: biochemical
Conditions: variants of T. reesei CBH I; [(Activity without BG)/(Activity with BG)]*100; conversion of glucan after 72 hours
Protocol: Bagasse Assay: This assay measures the activity of CBH I on bagasse, a lignocellulosic substrate. Reactions were run in 10 ml vials with 5% dilute acid pretreated bagasse (250 mg solids per 5 ml reaction). Each reaction contained 4 mg CBH I enzyme/g solids, 200 mM MES pH 6, kanamycin, and chloramphenicol. Reactions were incubated at 35° C. in hybridization incubators (Robbins Scientific), rotating at 20 RPM. Time points were taken by transferring a sample of homogenous slurry (150 μl) into a 96-well deep well plate and quenching the reaction with stop buffer (450 μl of 500 mM sodium carbonate, pH 10). Time point measurements were taken every 24 hours for 72 hours.
Cellobiose Tolerance Assays (or Cellobiose Inhibition Assays): Tolerance to cellobiose (or inhibition caused by cellobiose) was tested in two ways in the CBH I assays. A direct-dose tolerance method can be applied to all of the CBH I assays (i.e., 4-MUL, PASC, and/or bagasse assays), and entails the exogenous addition of a known amount of cellobiose into assay mixtures. A different indirect method entails the addition of an excess amount of β-glucosidase (BG) to PASC and bagasse assays (typically, 1 mg β-glucosidase/g solids loaded). BG will enzymatically hydrolyze the cellobiose generated during these assays; therefore, CBH I activity in the presence of BG can be taken as a measure of activity in the absence of cellobiose. Furthermore, when activity in the presence and absence of BG are similar, this indicates tolerance to cellobiose. […]
FIGS. 4 and 5 show bar graph data for the bagasse assay of wild type T. reesei CBH I vs. the variants. In FIG. 4, bars represent relative activity, normalized to wild type activity in the absence of cellobiose (WT+BG=1). In FIG. 5, bars represent tolerance to cellobiose, as represented by the ratio of activity in the presence of accumulating cellobiose (−BG) to that of activity in the absence of cellobiose (+BG); ratios close to 1 indicate greater tolerance to cellobiose.

B1: R268A/R411A: T. reesei CBH I (SEQ ID NO:2) with R268A and R411A substitutions (protein, listed as Trichoderma reesei)
chain: MYRKLAVISAFLATARAQSACTLQSETHPPLTWQKCSSGGTCTQQTGSVVIDANWRWTHATNSSTNCYDGNTWSSTLCPDNETCAKNCCLDGAAYASTYGVTTSGNSLSIGFVTQSAQKNVGARLYLMASDTTYQEFTLLGNEFSFDVDVSQLPCGLNGALYFVSMDADGGVSKYPTNTAGAKYGTGYCDSQCPRDLKFINGQANVEGWEPSSNNANTGIGGHGSCCSEMDIWEANSISEALTPHPCTTVGQEICEGDGCGGTYSDNAYGGTCDPDGCDWNPYRLGNTSFYGPGSSFTLDTTKKLTVVTQFETSGAINRYYVQNGVTFQQPNAELGSYSGNELNDDYCTAEEAEFGGSSFSDKGGLTQFKKATSGGMVLVMSLWDDYYANMLWLDSTYPTNETSSTPGAVAGSCSTSSGVPAQVESQSPNAKVTFSNIKFGPIGSTGNPSGGNPPGGNPPGTTTTRRPATTTGSSPGPTQSHYGQCGGIGYSGPTVCASGTTCQVLNPYYSQCL
Tolerance to cellobiose accumulation % Activity in Bagasse Assay (−/+BG): 95%

B2: R268K/R411K: T. reesei CBH I (SEQ ID NO:2) with R268K and R411K substitutions (protein, listed as Trichoderma reesei)
chain: MYRKLAVISAFLATARAQSACTLQSETHPPLTWQKCSSGGTCTQQTGSVVIDANWRWTHATNSSTNCYDGNTWSSTLCPDNETCAKNCCLDGAAYASTYGVTTSGNSLSIGFVTQSAQKNVGARLYLMASDTTYQEFTLLGNEFSFDVDVSQLPCGLNGALYFVSMDADGGVSKYPTNTAGAKYGTGYCDSQCPRDLKFINGQANVEGWEPSSNNANTGIGGHGSCCSEMDIWEANSISEALTPHPCTTVGQEICEGDGCGGTYSDNKYGGTCDPDGCDWNPYRLGNTSFYGPGSSFTLDTTKKLTVVTQFETSGAINRYYVQNGVTFQQPNAELGSYSGNELNDDYCTAEEAEFGGSSFSDKGGLTQFKKATSGGMVLVMSLWDDYYANMLWLDSTYPTNETSSTPGAVKGSCSTSSGVPAQVESQSPNAKVTFSNIKFGPIGSTGNPSGGNPPGGNPPGTTTTRRPATTTGSSPGPTQSHYGQCGGIGYSGPTVCASGTTCQVLNPYYSQCL
Tolerance to cellobiose accumulation % Activity in Bagasse Assay (−/+BG): 94%

B3: R411K: T. reesei CBH I (SEQ ID NO:2) with R411K substitution (protein, listed as Trichoderma reesei)
chain: MYRKLAVISAFLATARAQSACTLQSETHPPLTWQKCSSGGTCTQQTGSVVIDANWRWTHATNSSTNCYDGNTWSSTLCPDNETCAKNCCLDGAAYASTYGVTTSGNSLSIGFVTQSAQKNVGARLYLMASDTTYQEFTLLGNEFSFDVDVSQLPCGLNGALYFVSMDADGGVSKYPTNTAGAKYGTGYCDSQCPRDLKFINGQANVEGWEPSSNNANTGIGGHGSCCSEMDIWEANSISEALTPHPCTTVGQEICEGDGCGGTYSDNRYGGTCDPDGCDWNPYRLGNTSFYGPGSSFTLDTTKKLTVVTQFETSGAINRYYVQNGVTFQQPNAELGSYSGNELNDDYCTAEEAEFGGSSFSDKGGLTQFKKATSGGMVLVMSLWDDYYANMLWLDSTYPTNETSSTPGAVKGSCSTSSGVPAQVESQSPNAKVTFSNIKFGPIGSTGNPSGGNPPGGNPPGTTTTRRPATTTGSSPGPTQSHYGQCGGIGYSGPTVCASGTTCQVLNPYYSQCL
Tolerance to cellobiose accumulation % Activity in Bagasse Assay (−/+BG): 89%

B4: R268A/R411K: T. reesei CBH I (SEQ ID NO:2) with R268A and R411K substitutions (protein, listed as Trichoderma reesei)
chain: MYRKLAVISAFLATARAQSACTLQSETHPPLTWQKCSSGGTCTQQTGSVVIDANWRWTHATNSSTNCYDGNTWSSTLCPDNETCAKNCCLDGAAYASTYGVTTSGNSLSIGFVTQSAQKNVGARLYLMASDTTYQEFTLLGNEFSFDVDVSQLPCGLNGALYFVSMDADGGVSKYPTNTAGAKYGTGYCDSQCPRDLKFINGQANVEGWEPSSNNANTGIGGHGSCCSEMDIWEANSISEALTPHPCTTVGQEICEGDGCGGTYSDNAYGGTCDPDGCDWNPYRLGNTSFYGPGSSFTLDTTKKLTVVTQFETSGAINRYYVQNGVTFQQPNAELGSYSGNELNDDYCTAEEAEFGGSSFSDKGGLTQFKKATSGGMVLVMSLWDDYYANMLWLDSTYPTNETSSTPGAVKGSCSTSSGVPAQVESQSPNAKVTFSNIKFGPIGSTGNPSGGNPPGGNPPGTTTTRRPATTTGSSPGPTQSHYGQCGGIGYSGPTVCASGTTCQVLNPYYSQCL
Tolerance to cellobiose accumulation % Activity in Bagasse Assay (−/+BG): 94%

B5: R268K: T. reesei CBH I (SEQ ID NO:2) with R268K substitution (protein, listed as Trichoderma reesei)
chain: MYRKLAVISAFLATARAQSACTLQSETHPPLTWQKCSSGGTCTQQTGSVVIDANWRWTHATNSSTNCYDGNTWSSTLCPDNETCAKNCCLDGAAYASTYGVTTSGNSLSIGFVTQSAQKNVGARLYLMASDTTYQEFTLLGNEFSFDVDVSQLPCGLNGALYFVSMDADGGVSKYPTNTAGAKYGTGYCDSQCPRDLKFINGQANVEGWEPSSNNANTGIGGHGSCCSEMDIWEANSISEALTPHPCTTVGQEICEGDGCGGTYSDNKYGGTCDPDGCDWNPYRLGNTSFYGPGSSFTLDTTKKLTVVTQFETSGAINRYYVQNGVTFQQPNAELGSYSGNELNDDYCTAEEAEFGGSSFSDKGGLTQFKKATSGGMVLVMSLWDDYYANMLWLDSTYPTNETSSTPGAVRGSCSTSSGVPAQVESQSPNAKVTFSNIKFGPIGSTGNPSGGNPPGGNPPGTTTTRRPATTTGSSPGPTQSHYGQCGGIGYSGPTVCASGTTCQVLNPYYSQCL
Tolerance to cellobiose accumulation % Activity in Bagasse Assay (−/+BG): 92%

B6: R268K/R411A: T. reesei CBH I (SEQ ID NO:2) with R268K and R411A substitutions (protein, listed as Trichoderma reesei)
chain: MYRKLAVISAFLATARAQSACTLQSETHPPLTWQKCSSGGTCTQQTGSVVIDANWRWTHATNSSTNCYDGNTWSSTLCPDNETCAKNCCLDGAAYASTYGVTTSGNSLSIGFVTQSAQKNVGARLYLMASDTTYQEFTLLGNEFSFDVDVSQLPCGLNGALYFVSMDADGGVSKYPTNTAGAKYGTGYCDSQCPRDLKFINGQANVEGWEPSSNNANTGIGGHGSCCSEMDIWEANSISEALTPHPCTTVGQEICEGDGCGGTYSDNKYGGTCDPDGCDWNPYRLGNTSFYGPGSSFTLDTTKKLTVVTQFETSGAINRYYVQNGVTFQQPNAELGSYSGNELNDDYCTAEEAEFGGSSFSDKGGLTQFKKATSGGMVLVMSLWDDYYANMLWLDSTYPTNETSSTPGAVAGSCSTSSGVPAQVESQSPNAKVTFSNIKFGPIGSTGNPSGGNPPGGNPPGTTTTRRPATTTGSSPGPTQSHYGQCGGIGYSGPTVCASGTTCQVLNPYYSQCL
Tolerance to cellobiose accumulation % Activity in Bagasse Assay (−/+BG): 102%

B7: R411A: T. reesei CBH I (SEQ ID NO:2) with R411A substitution (protein, listed as Trichoderma reesei)
chain: MYRKLAVISAFLATARAQSACTLQSETHPPLTWQKCSSGGTCTQQTGSVVIDANWRWTHATNSSTNCYDGNTWSSTLCPDNETCAKNCCLDGAAYASTYGVTTSGNSLSIGFVTQSAQKNVGARLYLMASDTTYQEFTLLGNEFSFDVDVSQLPCGLNGALYFVSMDADGGVSKYPTNTAGAKYGTGYCDSQCPRDLKFINGQANVEGWEPSSNNANTGIGGHGSCCSEMDIWEANSISEALTPHPCTTVGQEICEGDGCGGTYSDNRYGGTCDPDGCDWNPYRLGNTSFYGPGSSFTLDTTKKLTVVTQFETSGAINRYYVQNGVTFQQPNAELGSYSGNELNDDYCTAEEAEFGGSSFSDKGGLTQFKKATSGGMVLVMSLWDDYYANMLWLDSTYPTNETSSTPGAVAGSCSTSSGVPAQVESQSPNAKVTFSNIKFGPIGSTGNPSGGNPPGGNPPGTTTTRRPATTTGSSPGPTQSHYGQCGGIGYSGPTVCASGTTCQVLNPYYSQCL
Tolerance to cellobiose accumulation % Activity in Bagasse Assay (−/+BG): 94%

B8: R268A: T. reesei CBH I (SEQ ID NO:2) with R268A substitution (protein, listed as Trichoderma reesei)
chain: MYRKLAVISAFLATARAQSACTLQSETHPPLTWQKCSSGGTCTQQTGSVVIDANWRWTHATNSSTNCYDGNTWSSTLCPDNETCAKNCCLDGAAYASTYGVTTSGNSLSIGFVTQSAQKNVGARLYLMASDTTYQEFTLLGNEFSFDVDVSQLPCGLNGALYFVSMDADGGVSKYPTNTAGAKYGTGYCDSQCPRDLKFINGQANVEGWEPSSNNANTGIGGHGSCCSEMDIWEANSISEALTPHPCTTVGQEICEGDGCGGTYSDNAYGGTCDPDGCDWNPYRLGNTSFYGPGSSFTLDTTKKLTVVTQFETSGAINRYYVQNGVTFQQPNAELGSYSGNELNDDYCTAEEAEFGGSSFSDKGGLTQFKKATSGGMVLVMSLWDDYYANMLWLDSTYPTNETSSTPGAVRGSCSTSSGVPAQVESQSPNAKVTFSNIKFGPIGSTGNPSGGNPPGGNPPGTTTTRRPATTTGSSPGPTQSHYGQCGGIGYSGPTVCASGTTCQVLNPYYSQCL
Tolerance to cellobiose accumulation % Activity in Bagasse Assay (−/+BG): 86%
